This data set concerns the molecule itself. The data set can be described thus: SEC; Superose 12 10/300 GL, 4°C, 20 mM Tris-HCl pH 6.9, 100 mM NaCl, 0.1 mM EDTA; protein applied at 2.5 mg/ml; calibrated with standard proteins. On the technique in general: Size exclusion chromatography separates by hydrodynamic size, large species first.

Numbering of substitutions follows the chain as printed. Names may count otherwise.

B1: His-tagged wild type RsbP (natural protein, Bacillus subtilis, UniProt O07014 1-403, looked up)
chain: MDKQLNDAPCGFLALSEEGSIIAANRTLIKILDYEPEQVIGQHMNMMLTIPAQLFCQLYFFPLLKLEHHIEEIYISLKARDGEEIPVLINAIARHDSGASVFDCVLIPMRKRNEYENELLIARNEAQEALLAKQKANAELEIALETLKAKQEELLEINKQNQQFKLNTKRELELARKIQKNSLTEPIVNDQVQIDSYYNASSELSGDLYGYYQIDEHRYGIIILDVMGHGISSALITMSLHPLFQRQITQGLSPVKVMKELDRHLHSLFQNDEEARHYCTAIYLEIDIARQRIDYVNAGHPPALWQDDSGTQHLLHATSPPIGMFEDLEFQSSSLSYTEDGRLLLYTDGVMDPTASCYLFDLLKDHPDSPIADLKEKILTSLQHQKEAHHKSDDECFILVDVK
notes: RsbP serine phosphatase, Bacillus subtilis; called full-length in the results and discussion; predicted monomer mass of the His-tagged protein 48,325; also called WT
For B1, the stoichiometry N (usually the number of molecules, sites or subunits per partner or assembly) is 4.

B2: His-tagged RsbP-F55A (natural protein, Bacillus subtilis, UniProt O07014 1-403, looked up)
chain: B1 chain with F55A
notes: RsbP serine phosphatase, Bacillus subtilis, with F55A
In the case of B2, the binding result is reported as “binds”.
